The results in this text go back to US20050267061.

Broadly, the Kd is the concentration at which binding is half-saturated. Read a low Kd as tighter binding.

Take “ATGGACGGG (double strand) [BVO 13A / MX1E target]”: the results for the Kd in the series with MX1E (synthetic) and with BVO 13A (synthetic) were 3.4 nM and below 0.02 nM, respectively. As for “GAGGCTTGG (double strand) [VOP 29A-3 target]”, the Kd with VOP 29A-3 (synthetic) is below 0.02 nM. The sequence “GCCGGGGAG (double strand) [USX 3A target]” had a Kd in the series with USX 3A (synthetic) of 0.06 nM. The sequence “GCTGGAGCA (double strand) [VOP 35A-10 target]” gave a Kd in the series with VOP 35A-10 (synthetic) below 0.02 nM. In turn, “GCTGGGGGC (double strand) [VOP 30A-4 target]” registered an equilibrium dissociation constant (Kd) with VOP 30A-4 (synthetic) below 0.02 nM.

In the series on HP38 4A (synthetic), “GGDTGGGGG (double strand) [HP38 4A target]” displayed a Kd of 0.75 nM.

In turn, “GGGGAGGAT (double strand) [VEGF 1B target]” yielded a Kd in the series on VEGF 1B (synthetic) of 2 nM. “GGGGGCGCT (double strand) [VOP 28A-2 target]” came in with an equilibrium dissociation constant (Kd) in the series on VOP 28A-2 (synthetic) below 0.02 nM. Take “GGGGGTGAC (double strand) [VOP 32 target]”: the equilibrium dissociation constant (Kd) in the series on VOP 32B-7 (synthetic) and in the series on VOP 32A-6 (synthetic) was below 0.02 nM in each case. In turn, “TGGGCAGAC (double strand) [HUM 19A target]” had a dissociation constant (Kd) with HUM 19A (synthetic) of 0.02 nM. Consider “TGGGGGTGG (double strand) [MTS 5A target]”, for which the Kd in the series with MTS 5A (synthetic) was found to be 0.07 nM.
